Assay results: the supplement of paper PMC10567573

B1: MYBL2 (parent)
chain: FSPSQFLNFWNKQDTLELESPSLT
B2: KRT34 (parent)
chain: PTVDLNQVLNETRSQYEALVETNR

Variants of: B1
Test: protein stability index of a GFP-peptide fusion (GPS, HEK-293T) (PSI 1-6); higher = more stable
Conditions: c terminus: a fixed tail appended
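Further: lentivirally expressed fusions sorted by FACS into six bins by GFP to DsRed ratio, PSI derived from sequencing read proportions per bin multiplied by bin number.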

| Variant | protein stability index |
| --- | --- |
| P3A | 3.83 |
| P3N | 2.38 |
| P3F | 3.08 |
| P3W | 2.18 |
| P3T | 2.94 |
| P3Q | 3.52 |
| P3I | 3.19 |
| P3H | 1.94 |
| P3K | 2.02 |
| P3R | 2.39 |
| P3G | 2.41 |
| P3M | 2.3 |
| P3E | 1.6 |
| P3D | 3.71 |
| P3Y | 3.74 |
| P3V | 1.77 |
| P3S | 2.18 |
| P3L | 2.69 |
| S2A | 2.65 |
| S2N | 2.38 |
| S2Q | 2.71 |
| S2V | 3.06 |
| S2I | 3.87 |
| S2M | 3.62 |

| Variant | protein stability index |
| --- | --- |
| S2W | 2.98 |
| S2E | 2.08 |
| S2F | 2.14 |
| S2T | 3 |
| S2C | 2.66 |
| S2R | 2.26 |
| S2L | 2.79 |
| S2K | 1.99 |
| S2D | 1.92 |
| S2Y | 1.63 |
| S2H | 3.45 |
| S2P | 2.13 |
| F1R | 3.06 |
| F1Y | 4.39 |
| F1E | 4.58 |
| F1K | 3.75 |
| F1T | 3.75 |
| F1A | 3.77 |
| F1L | 3.51 |
| F1G | 2.83 |
| F1Q | 3.74 |
| F1P | 4.2 |
| F1N | 3.3 |
| F1H | 2.13 |

| Variant | protein stability index |
| --- | --- |
| F1S | 4.11 |
| F1M | 3.3 |
| F1W | 2.73 |
| F1C | 2.62 |
| F1V | 3.72 |
| F1I | 3 |
| F1D | 4.27 |
| S4A | 2.14 |
| S4T | 3.36 |
| S4L | 2.12 |
| S4K | 2.53 |
| S4P | 2.14 |
| S4G | 4.19 |
| S4Q | 4.58 |
| S4E | 2 |
| S4C | 2.91 |
| S4N | 3.63 |
| S4D | 1.79 |
| S4H | 2 |
| S4I | 4.06 |
| S4M | 3.27 |
| S4F | 3.04 |

Variants of: B2
Test: as above
Conditions: c terminus: a fixed tail appended

| Variant | protein stability index |
| --- | --- |
| P1C | 2.77 |
| P1M | 3.31 |
| P1S | 3.82 |
| P1I | 2.42 |
| P1L | 2.88 |
| P1T | 3.96 |
| P1W | 2.95 |
| P1Y | 2.84 |
| P1N | 3.21 |
| P1K | 3.83 |
| P1Q | 3.77 |
| P1R | 3.43 |
| P1H | 3.97 |
| P1V | 2.5 |
| Q15W | 1.94 |
| Q15G | 4.19 |
| Q15D | 5.05 |
| Q15R | 4.16 |
| Q15E | 4.16 |
| Q15K | 3.89 |
| Q15V | 3.19 |
| Q15P | 4.34 |
| Q15L | 2.25 |
| Q15Y | 2.91 |

| Variant | protein stability index |
| --- | --- |
| Q15S | 4.38 |
| N6T | 3.05 |
| N6K | 2.98 |
| N6D | 2.79 |
| N6Y | 1.71 |
| N6L | 2.14 |
| N6I | 2.03 |
| N6E | 2.56 |
| N6A | 2.48 |
| N6H | 2.92 |
| N6C | 2.51 |
| N6F | 2.42 |
| N6G | 3.79 |
| N6W | 2.5 |
| V8E | 4.4 |
| V8Y | 2.29 |
| V8N | 4.58 |
| V8L | 1.43 |
| V8D | 4.64 |
| V8R | 4.67 |
| V8W | 2.56 |
| V8S | 4.18 |
| V8K | 4.22 |
| V8G | 4.2 |

| Variant | protein stability index |
| --- | --- |
| V8A | 3.56 |
| V8H | 3.52 |
| R24G | 4.17 |
| R24T | 3.8 |
| R24S | 4.81 |
| R24Y | 2.29 |
| R24I | 3.11 |
| R24F | 2.5 |
| R24Q | 4.18 |
| R24M | 2.51 |
| R24W | 3.55 |
| R24V | 2.17 |
| R24N | 4.74 |
| R24C | 2.56 |
| V3L | 2.65 |
| V3Q | 3.05 |
| V3K | 2.76 |
| V3C | 4.07 |
| V3F | 3.65 |
| V3S | 4.28 |
| V3W | 5.02 |
| V3P | 4.62 |
| V3N | 4.46 |
| V3I | 3.7 |

| Variant | protein stability index |
| --- | --- |
| V3M | 2.45 |
| V3Y | 2.83 |
| D4R | 4.48 |
| D4G | 3.62 |
| D4F | 3.19 |
| D4K | 3.94 |
| D4W | 2.59 |
| D4M | 3.21 |
| D4I | 3.58 |
| D4L | 3.56 |
| D4E | 4.01 |
| D4N | 4.38 |
| D4A | 4.21 |
| D4Y | 3.44 |
| D4S | 2.73 |
| V20A | 2.68 |
| V20S | 3.98 |
| V20F | 3.64 |
| V20L | 4.04 |
| V20C | 3.68 |
| V20T | 4.25 |
| V20K | 4.86 |
| V20R | 4.9 |
| V20Y | 4.09 |

| Variant | protein stability index |
| --- | --- |
| V20E | 3.52 |
| V20Q | 4.5 |
| A18R | 2.31 |
| A18V | 4.01 |
| A18Q | 3.78 |
| A18S | 3.32 |
| A18H | 4.4 |
| A18F | 3.59 |
| A18G | 4.03 |
| A18N | 3.3 |
| A18K | 3.16 |
| A18I | 3.7 |
| N10V | 3.21 |
| N10Y | 2.91 |
| N10M | 2.49 |
| N10L | 1.58 |
| N10T | 2.75 |
| N10Q | 2.5 |
| N10I | 2.47 |
| N10C | 2.82 |
| N10F | 2.63 |
| N10E | 2.41 |
| S14T | 2.96 |
| S14V | 2.82 |

| Variant | protein stability index |
| --- | --- |
| S14Q | 2.34 |
| S14L | 2.12 |
| S14P | 4.1 |
| S14E | 2.23 |
| S14K | 2.47 |
| S14H | 3.32 |
| S14G | 3.56 |
| E21N | 3.83 |
| E21H | 3.76 |
| E21L | 3.56 |
| E21D | 3.64 |
| E21R | 3.62 |
| E21V | 3.49 |
| E21M | 3.92 |
| E21C | 3.55 |
| E21F | 2.74 |
| E21T | 3.74 |
| E21Q | 4.3 |
| E21A | 3.84 |
| E21P | 4.19 |
| E21Y | 3.62 |
| E21W | 2.62 |
| E21I | 3.23 |
| E21K | 4.3 |

| Variant | protein stability index |
| --- | --- |
| E21S | 4.02 |
| Y16Q | 5.57 |
| Y16R | 5.42 |
| Y16W | 3.63 |
| Y16H | 5.25 |
| Y16E | 5.44 |
| Y16F | 3.65 |
| Y16N | 4.99 |
| Y16P | 4.8 |
| Y16T | 4.58 |
| Y16D | 5.26 |
| Y16A | 5.1 |
| Y16K | 4.57 |
| R13N | 5.01 |
| R13T | 4.27 |
| R13F | 3.07 |
| R13K | 3.31 |
| R13W | 3.71 |
| R13D | 5.18 |
| R13A | 3.85 |
| R13H | 3.46 |
| R13C | 3.57 |
| R13G | 4.52 |
| R13I | 2.83 |

| Variant | protein stability index |
| --- | --- |
| R13V | 3.42 |
| T12C | 3.49 |
| T12G | 4.39 |
| T12V | 3.04 |
| T12N | 4.03 |
| T12H | 1.75 |
| T12S | 3.54 |
| T12K | 4 |
| T12P | 4.12 |
| E11M | 3.95 |
| E11D | 3.81 |
| E11H | 4.18 |
| E11G | 4.05 |
| E11T | 3.78 |
| E11V | 4.44 |
| E11R | 4.03 |
| E11Y | 3.72 |
| N23M | 3.12 |
| N23I | 2.79 |
| N23C | 3.47 |
| N23K | 3.95 |
| N23G | 4.04 |
| N23Y | 3.52 |
| N23D | 5.04 |

| Variant | protein stability index |
| --- | --- |
| N23A | 4.03 |
| N23S | 4.39 |
| N23W | 2.53 |
| N23E | 5.16 |
| L5V | 2.86 |
| L5W | 3.3 |
| L5D | 4.67 |
| L5S | 4.13 |
| L5E | 4.61 |
| L5A | 2.51 |
| L5H | 3.8 |
| L5I | 2.24 |
| L5P | 3.77 |
| L5K | 4.8 |
| L5F | 3.92 |
| T22W | 4.02 |
| T22Y | 4.23 |
| T22F | 3.78 |
| T22S | 4.36 |
| T22E | 4.11 |
| T22N | 4.39 |
| T22G | 4.41 |
| Q7N | 3.92 |
| Q7V | 2.37 |

| Variant | protein stability index |
| --- | --- |
| Q7A | 3.13 |
| Q7P | 4.79 |
| Q7G | 4.25 |
| Q7L | 4.08 |
| Q7C | 3.95 |
| Q7D | 3.66 |
| Q7K | 3.98 |
| Q7Y | 3.65 |
| Q7H | 4 |
| E17P | 3.62 |
| E17H | 3.93 |
| E17T | 4.23 |
| E17D | 4.67 |
| E17K | 4.12 |
| E17M | 3.68 |
| E17I | 2.71 |
| E17L | 3.85 |
| E17Y | 3.22 |
| L9W | 4.04 |
| L9Y | 3.61 |
| L9K | 4.45 |
| L9P | 5.34 |
| L9S | 5.03 |
| L9H | 4.66 |

| Variant | protein stability index |
| --- | --- |
| L9F | 3.45 |
| L9N | 4.76 |
| L9T | 4.61 |
| L9M | 4.21 |
| L9G | 4.64 |
| T2N | 3.72 |
| T2F | 1.89 |
| T2I | 2.99 |
| T2K | 3.14 |
| T2R | 3.66 |
| T2H | 3.38 |
| T2P | 3.01 |
| T2D | 3.82 |
| T2Q | 2.71 |
| T2C | 2.67 |
| L19K | 5.17 |
| L19T | 4.5 |
| L19A | 4.47 |
| L19V | 4.44 |
| L19H | 4.75 |
| L19Q | 4.63 |
| L19G | 5.03 |
| L19Y | 4.39 |
| L19S | 4.99 |
